Measurements: paper doi:10.1101/2023.06.19.545293

Molecular target: ZnF domain of A. thaliana SPL5 (Ser60-Leu127) (A. thaliana) (UniProt Q9S758)
Experiment: ITC

Sequence of ZnF domain of A. thaliana SPL5 (Ser60-Leu127) (A. thaliana) (Q9S758 60-127): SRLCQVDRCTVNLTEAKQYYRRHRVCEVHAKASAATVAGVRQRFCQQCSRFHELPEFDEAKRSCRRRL

## SAP05 (mature, Ala33-Lys135) of Aster Yellows phytoplasma strain Witches Broom (natural protein)
  Kd: 450 nM
  stoichiometry N: 1
